Here are results for five substances from PMC5897841, “Development of a multipurpose scaffold for the display of peptide loops” (Protein Engineering, Design and Selection, 2017).

Bridge positions count the residues as written; N and C are the ends. Ends that are not written are not given here.

The target in assay [1] is T1, CK2α kinase (Homo sapiens, UniProt P68400).
T1 construct: made in house; host or cells: E. coli BL21(DE3) with pUBS520; pBAT4 plasmid
T1 sequence (P68400 2-329): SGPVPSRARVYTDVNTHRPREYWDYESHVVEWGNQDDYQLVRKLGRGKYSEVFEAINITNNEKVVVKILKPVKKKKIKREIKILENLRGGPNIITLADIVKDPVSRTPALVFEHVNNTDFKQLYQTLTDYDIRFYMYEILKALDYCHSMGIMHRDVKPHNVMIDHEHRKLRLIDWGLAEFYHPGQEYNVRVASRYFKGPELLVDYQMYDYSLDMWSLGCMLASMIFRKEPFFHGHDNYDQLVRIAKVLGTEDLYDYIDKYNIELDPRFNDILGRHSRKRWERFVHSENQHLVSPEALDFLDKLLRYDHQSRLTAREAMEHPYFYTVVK
As to the kind of experiment: Fluorescence anisotropy direct binding of labeled CK2β(186–200) / RAD-CK2β. How it is done:
About 100 μg peptide or protein in 500 μl sodium phosphate pH 6.75, 150 mM NaCl were labeled using 30-fold excess of the maleimide dye. The reactions was allowed to proceed for 1 h at room temperature and the Alexa Fluor 488-maleimide was removed by dialysis using 3-kDa molecular weight cut-off membrane against 10 mM Tris pH 8, 250 mM NaCl buffer. Protein and peptide samples were dialyzed for 3 h at room temperature and further purified by SEC using Superdex 75 GL 10/300 or Superdex peptide 10/300 GL column (GE Healthcare). Labeled peptides and proteins were concentrated to 100 μM, flash frozen in liquid nitrogen and stored at −80°C. The concentration of labeled peptide or proteins and degree of labeling was determined by measuring the absorbance at 280 and 495 nm.
A stock solution of Alexa Fluor 488-labeled peptide or display proteins was diluted in assay buffer to concentration of 20 nM. For both studies, 10 mM HEPES pH 7.4, 500 mM NaCl, 1 mM DTT, 0.05% P20 buffer from was used. […] FA was measured using PheraStar spectrofluorimeter plate reader (BMG Laboratories, Durham, NC) equipped with polarization filters (excitation 485 nm, emission 520 nm). Dissociation constants were calculated in pro Fit (Quantum Soft) by fitting experimental data to 1:1 binding model equation.
A general note: Fluorescence polarisation rises when a labelled molecule tumbles more slowly, as on binding a larger partner.

The target of assay [2] is T1, CK2α kinase. As to the kind of experiment: ITC binding of CK2β(186–200) peptide / RAD display to CK2α. To be noted: 25°C, 10 mM HEPES pH 7.4, 500 mM NaCl, 0.05% P20, 100 μM titrant into 10 μM CK2α, single titration, ± from fitting, RAD version is cRAD-CK2β(186–200), read-out: Equilibrium dissociation constant (KD), ITC. How it is done:
(§1) All ITC experiments were performed on itc200 instrument (GE Healthcare). Prior to ITC titration, proteins and peptides were buffer exchanged into 10 mM HEPES pH 7.4, 500 mM NaCl, 0.05% P20 surfactant. ITC experiments with Aurora Awt kinase were performed in buffer containing 50 mM HEPES pH 7.4, 100 mM Mg(CH3COO)2, 100 mM NaCl, 1 mM ATP, 1 mM DTT, 0.01% v/v P20. […] In the Aurora AD274N and Aurora AWT binding assays, 50 μM solution of the titrant was injected into 5 μM kinase solution in the cell. […] Binding isotherms were fit by non-linear regression using the single-site model provided by ORIGIN software (Origin Lab). The stoichiometry of the interaction (N), equilibrium association constant (KA) and change of enthalpy (ΔH) were floated during the fitting.

Assay [3] concerns the target T1, CK2α kinase. As to the kind of experiment: SPR binding of CK2α to immobilized CK2β(186–200) / RAD-CK2β. As to conditions: Biacore T100, CM5 chip, ligand immobilized via free cysteine (linear peptide with C-terminal Gly-Cys), 25°C, 10 mM HEPES pH 7.4, 500 mM NaCl, 0.05% P20; data at 200 s post-injection; 1:1 steady-state model; ± from fitting; read-out: Equilibrium dissociation constant (KD), SPR steady-state. On the procedure: SPR analyses were conducted using a Biacore T100 instrument (GE Healthcare) using CM5 sensor chips to which cRAD display proteins were immobilized through their unique cysteine residues. All coupling reagents were purchased from GE Healthcare: N-ethyl-N′-dimethylaminopropylcarbodiimide (EDC), 2-(2-pyridinyldithio) ethaneamine hydrochloride (PDEA), N-hydroxysuccinimide (NHS). All immobilizations were conducted at 25°C in running buffer 10 mM HEPES pH 7.4, 500 mM sodium chloride, 0.05% P20. Two CM5 sensor chips were used for the experiments. Peptides and RAD scaffold displaying the peptides were covalently immobilized via free cysteine on the sensor surface in cells 2 and 4, respectively. Cells 1 and 3 were derivatized with cysteine only and served as reference surfaces. Active and reference cells were created automatically using the immobilization surface preparation Wizard software. Immobilization levels for cells 2 and 4 ranged from 240 to 400 RU. […] The dissociation step was 180 s after which sensor surfaces were regenerated by injecting 3 M MgCl2 solution 3 times for 30 sat 60 μl/min. […] Aurora A binding to TPX-2 peptide and RAD-TPX-2 were analyzed also using kinetic data with heterogenous ligand model, with data presented in the Supplementary Material.
(SPR reads the build-up and loss of mass on a sensor chip optically.)

Assay [4] concerns the target T1, CK2α kinase. As to the kind of experiment: Affinities for CK2α across the experimental techniques (ITC, SPR, FA). It is filed as binding. As to conditions: read-out: KD range between the different experimental techniques. On the procedure: as §1, with “The stoichiometry of the interaction (N), equilibrium association constant (KA) and change of enthalpy (ΔH) were floated during the fitting.” left out
SPR analyses were conducted using a Biacore T100 instrument (GE Healthcare) using CM5 sensor chips to which cRAD display proteins were immobilized through their unique cysteine residues. […] Aurora A binding to TPX-2 peptide and RAD-TPX-2 were analyzed also using kinetic data with heterogenous ligand model, with data presented in the Supplementary Material.
A stock solution of Alexa Fluor 488-labeled peptide or display proteins was diluted in assay buffer to concentration of 20 nM. […] FA was measured using PheraStar spectrofluorimeter plate reader (BMG Laboratories, Durham, NC) equipped with polarization filters (excitation 485 nm, emission 520 nm). Dissociation constants were calculated in pro Fit (Quantum Soft) by fitting experimental data to 1:1 binding model equation.

Assay [5] deals with T2, wild-type Aurora A (Aurora AWT) kinase domain (Homo sapiens, UniProt O14965).
T2 construct: Aurora A (126-391)WT; made in house; host or cells: E. coli; plasmid pHAT4-LambdaPP
T2 sequence (O14965 126-391): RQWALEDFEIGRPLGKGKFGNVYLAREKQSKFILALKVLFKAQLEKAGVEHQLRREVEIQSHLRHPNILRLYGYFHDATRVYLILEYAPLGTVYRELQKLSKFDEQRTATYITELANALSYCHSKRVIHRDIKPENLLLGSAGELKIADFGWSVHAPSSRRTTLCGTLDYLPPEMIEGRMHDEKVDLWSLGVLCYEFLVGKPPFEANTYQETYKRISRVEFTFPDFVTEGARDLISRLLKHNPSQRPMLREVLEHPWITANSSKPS
As to the kind of experiment: Bio-Layer Interferometry direct binding of Aurora AWT to RAD-TPX2 mutants. To be noted: double His-tagged RAD-TPX2 on Anti-Penta-HIS biosensors, 50 mM HEPES pH 7.4, 500 mM NaCl, 100 mM Mg(CH3COO)2, 0.5 mM ATP, 0.5 mM TCEP, 0.05% P20, 1:1 model, read-out: KD, BLI (Fig. 5a). How it is done: Octet RED96 (ForteBio) instrument was used for BLI analysis for double His-tagged RAD-TPX2/Aurora AWT interactions. Experiments were performed using Anti-Penta-HIS biosensors (ForteBio), which were regenerated with 10 mM glycine, pH 1.7. IMAC purified RAD proteins displaying wild-type sequence or alanine mutants of the TPX2 were buffer exchanged into 50 mM HEPES pH 7.4, 500 mM NaCl, 100 mM Mg(CH3COO)2, 0.5 mM ATP, 0.5 mM TCEP, 0.05% P20 (assay buffer). For binding assays pre-wet sensors were loaded with double His-tag labeled proteins at 1 μM in assay buffer. Dilution series (from 0 to 500 or 5000 nM) of Aurora AWT kinase construct without His-tag was prepared in the assay buffer and following experimental setup was used for each measurement cycle: regeneration 3 × 5 s, baseline monitoring 120 s, sample loading 200 s, baseline monitoring 150 s, ligand binding (association) 400 s and ligand dissociation 600 s, followed by regeneration and the next cycle. Regenerated Anti-Penta-HIS biosensors were used to perform double referencing. Data was processed using ForteBio Analysis 7.1 software and dissociation constants were calculated in pro Fit (Quantum Soft) by fitting experimental data to 1:1 binding model equation.

In the next assay the target is Aurora A. As to conditions: N-terminal segment of TPX2; ref Anderson et al., 2007; read-out: Affinity of TPX2 for Aurora A; cited from earlier work. From the text: Aurora A kinase plays an important role in the mitotic spindle assembly and is overexpressed in tumor cells ([Bischoff et al., 1998]). It is known to be dramatically activated by TPX2 protein, which binds to the Aurora A catalytic domain and translocates the kinase to the mitotic spindle during mitosis ([Bischoff et al., 1998]; [Kufer et al., 2002]; [Eyers et al., 2003]).

The target in another assay is CK2α. On the set-up: method as in Raaf et al., 2013. As to conditions: ref Raaf et al., 2013; cited from earlier work.
In the next assay the test system is CK2β/CK2α complex. On the set-up: method as in Laudet et al., 2007. As to conditions: read-out: IC50, inhibition of CK2β/CK2α complex formation; ref Laudet et al., 2007; cited from earlier work.

Turning to “fluorescein labeled linear CK2β peptide: fluorescein labeled linear CK2β(186–200) peptide (RLYGFKIHPMAYQLQ; also: fluorescein label, site not given here; UniProt P67870 186-200, looked up, fragment) [reference compound]”, the “Fold weaker affinity of labeled linear peptide vs RAD display, FA” value with CK2α kinase [1] (fluorescein-labeled linear CK2β peptide relative to RAD-CK2β display) is reported as ~ 3 times.
On to “CK2β(186–200): synthetic linear peptide, residues 186–200 of human CK2β (RLYGFKIHPMAYQLQ; UniProt P67870 186-200, looked up, fragment)”, for which the Kd with CK2α kinase [2] is 138 ± 13 nM; with CK2α kinase [3], 407 ± 50 nM; with CK2α kinase [1] (fluorescein-labeled linear peptide or Alexa Fluor 488-labeled cRAD-CK2β(186–200), 10 mM HEPES pH 7.4, 500 mM NaCl, 1 mM DTT, 0.05% P20, CK2α 2 nM–2 μM, 15 min room temperature, 1:1 model, ± from fitting, read-out: Equilibrium dissociation constant (KD), FA) it was 348 ± 27 nM; with CK2α kinase [4], 138 to 407 nM.
As to “RAD-TPX2(7–43): RAD scaffold (RadA ATPase domain) displaying residues 7–43 of human TPX2”, the Kd in assay [5] turned out to be 46 nM.
For the substance “TPX2: TPX2 protein, binds Aurora A through its N-terminal segment (LSYSYDAPSDFINFSSLDDEGDTQNIDSWFEEKANLENLKGGGCQM; left off: KSI, end not stated, cleaved)”, the Kd on Aurora A was 2.3 nM.
Consider “GCRLYGFKIHGCG (disulfide 2-12 (inferred)) [Pc peptide]”, for which the Kd at CK2α is 559 nM. Also, the IC50 in the assay with CK2β/CK2α complex is 3000 nM.
